From patent US20250163180A1 (ABL BIO, published 2025)
Values belong to the binder of their own block, whether it stands above or below them.

Legend:
[1] = target: T1, human 4-1BB-Fc protein (Sino Biological) (human, UniProt Q07011 24-186); test: ELISA, plate coated with human 4-1BB-Fc at 0.1 ug/mL, detection with HRP-conjugated goat anti-human IgG
T1 construct: not shown: Fc part of the bought fusion protein

[2] = target: T2, human 4-1BB expressed on GloResponse NFkB-luc2/4-1BB Jurkat cells (Promega) (human, UniProt Q07011 24-255); test: cell-based or functional assay
T2 sequence (Q07011 24-255 limits assumed): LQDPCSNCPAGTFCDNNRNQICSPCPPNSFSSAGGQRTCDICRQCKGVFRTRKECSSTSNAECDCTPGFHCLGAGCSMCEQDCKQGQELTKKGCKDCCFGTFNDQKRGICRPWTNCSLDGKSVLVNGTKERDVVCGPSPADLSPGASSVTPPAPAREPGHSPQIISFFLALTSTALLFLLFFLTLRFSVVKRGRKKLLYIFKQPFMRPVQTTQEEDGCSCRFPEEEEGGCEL

[3] = target: T2, human 4-1BB expressed on GloResponse …; test: cell-based or functional assay; remark: listed apart in the source
[4] = target: T2, human 4-1BB expressed on GloResponse …; test: cell-based or functional assay; remark: listed apart in the source

T1 sequence (Q07011 24-186 limits assumed): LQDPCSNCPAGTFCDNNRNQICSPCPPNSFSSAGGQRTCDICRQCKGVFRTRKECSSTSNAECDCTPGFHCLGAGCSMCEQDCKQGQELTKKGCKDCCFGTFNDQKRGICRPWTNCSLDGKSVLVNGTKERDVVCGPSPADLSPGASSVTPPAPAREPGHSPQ

EC50 [1]: 0.2 nM
B1: AB41 (antibody, human IgG4 S228P, kappa, V domains shown)
VH: QVQLQQSGAEVIKPGASVKLSCKASGYTFSSYWMHWVRQAPGQGLEWIGEINPGNGHTNYNEKFKSRATLTGDTSTSTVYMELSSLRSEDTAVYYCARSFTTARAFAYWGQGTLVTVSS
VL: DIVMTQSPAFLSVTPGEKVTITCRASQTISDYLHWYQQKPDQAPKLLIKYASQSISGIPSRFSGSGSGTDFTFTISSLEAEDAATYYCQDGHSFPPTFGQGTKLEIKR
notes: also called anti-4-1BB antibody AB41

EC50 [1]: 0.24 nM
B2: 1A10 (antibody, human IgG4 S228P, lambda, V domains shown)
VH: EVQLLESGGGLVQPGGSLRLSCAASGFTFSSYDMSWVRQAPGKGLEWVSWISYSGGSIYYADSVKGRFTISRDNSKNTLYLQMNSLRAEDTAVYYCARDGQRNSMREFDYWGQGTLVTVSS
VL: QSVLTQPPSASGTPGRRVTISCSGSSSNIGNNYVTWYQQLPGTAPKLLIYADSHRPSGVPDRFSGSKSGTSASLAISGLRSEDEADYYCATWDYSLSGYVFGGGTKLTVLG
notes: also called anti-4-1BB antibody 1A10

EC50 [1]: 0.18 nM
B3: 1A12 (antibody, human IgG4 S228P, lambda, V domains shown)
VH: EVQLLESGGGLVQPGGSLRLSCAASGFTFSGYDMSWVRQAPGKGLEWVSVIYPDDGNTYYADSVKGRFTISRDNSKNTLYLQMNSLRAEDAAVYYCAKHGGQKPTTKSSSAYGMDGWGQGTLVTVSS
VL: B2 VL
notes: also called anti-4-1BB antibody 1A12

fold difference in EC50 with against without FcγRIIb CHO-K1 cells [2]: 2.2 fold | fold difference in top RLU with against without FcγRIIb CHO-K1 cells [2]: 13.5 fold | EC50, FcγRIIb-dependent 4-1BB bioassay [3]: 0.236 nM | Fold of induction (RLU), FcγRIIb-dependent 4-1BB bioassay [3]: 196 fold | EC50, FcγRIIb-independent 4-1BB bioassay [4]: 0.52 nM | Fold of induction (RLU), FcγRIIb-independent 4-1BB bioassay [4]: 15.6 fold
B4: Urelumab (antibody, V domains shown)
VH: QVQLQQWGAGLLKPSETLSLTCAVYGGSFSGYYWSWIRQSPEKGLEWIGEINHGGYVTYNPSLESRVTISVDTSKNQFSLKLSSVTAADTAVYYCARDYGPGNYDWYFDLWGRGTLVTVSS
VL: EIVLTQSPATLSLSPGERATLSCRASQSVSSYLAWYQQKPGQAPRLLIYDASNRATGIPARFSGSGSGTDFTLTISSLEPEDFAVYYCQQRSNWPPALTFGGGTKVEIK
